Experimental data from patent US20230227576A1 (published 2023).

Target: carcinoembryonic antigen (CEA) (Homo sapiens (Human), UniProt P06731)
Test: cell-based or functional assay

IL-2 secretion (ELISA): 4.6 ng/mL
B1: MFE23 CD28(IEV) truncated CoStAR (CAR)
chain: QVKLQQSGAELVRSGTSVKLSCTASGFNIKDSYMHWLRQGPEQGLEWIGWIDPENGDTEYAPKFQGKATFTTDTSSNTAYLQLSSLTSEDTAVYYCNEGTPTGPYYFDYWGQGTTVTVSSGGGGSGGGGSGGGGSENVLTQSPAIMSASPGEKVTITCSASSSVSYMHWFQQKPGTSPKLWIYSTSNLASGVPARFSGSGSGTSYSLTISRMEAEDAATYYCQQRSSYPLTFGAGTKLELKRIEVMYPPPYLDNEKSNGTIIHVKGKHLCPSPLFPGPSKPFWVLVVVGGVLACYSLLVTVAFIIFWVRSKRSRLLHSDYMNMTPRRPGPTRKHYQPYAPPRDFAAYRS
